The text below walks through data of paper PMC4383587, “The Evolutionary Origination and Diversification of a Dimorphic Gene Regulatory Network through Parallel Innovations in cis and trans”.

The chains are these.
B1: Motif 4 (t_MSE2 site S4, Probe 5) (dsDNA)
DNA 1: ATGTATACTAATTAGACAGTCTCTTTTTTT
DNA 2: AAAAAAAGAGACTGTCTAATTAGTATACAT
B2: Motif 3 (t_MSE2 site S3, Probe 4) (dsDNA)
DNA 1: GAGAATTCAAGATCATAATATGTATACTAA
DNA 2: TTAGTATACATATTATGATCTTGAATTCTC
B3: Motif 5 (t_MSE2 site S5, Probe 6) (dsDNA)
DNA 1: TTTTTATTACTTCAACTATTCAAATTT
DNA 2: AAATTTGAATAGTTGAAGTAATAAAAA

The target in this series is GST-Abd-A DBD (Drosophila melanogaster, UniProt P29555-2 136-209). Kind of series: EMSA; 50 mM HEPES pH 7.9, 100 mM KCl, 1 mM DTT, 12.5 mM MgCl2, 0.05 mM EDTA, 17% glycerol, 400 ng/ul poly(dI-dC), 20 fmol probe, 0-3000 ng protein, 30 min on ice. The following applies: protein: recombinant; tags: N-terminal GST (pGEX4T1); label: 3' biotin on each strand; blunt. On the technique in general: A gel shift assay detects complexes by their altered migration in electrophoresis.
Chain of GST-Abd-A DBD (P29555 396-469): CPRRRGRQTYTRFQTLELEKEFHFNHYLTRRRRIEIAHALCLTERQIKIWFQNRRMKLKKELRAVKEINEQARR
Take B1: the binding result is “binds”.
Regarding B2, the binding result is “binds”.
For the molecule B3, the binding result is “binds”.
